US20250122278A1, “ANTI-INTERLEUKIN-9 ANTIBODY AND USE THEREOF” (GUANGDONG KEGUANDA PHARMACEUTICAL TECHNOLOGY CO., LTD., priority 2022, published 2025)

Assays:
[1] = biological target: T1, IL-9-His recombinant protein (UniProt P15248 19-144); experiment: ELISA on IL-9-His, 293F culture supernatant, antibody concentration 2 µg/mL
T1 construct: range 19-144; used as coating antigen in the ELISAs; also called IL9 (19-144)-His; not shown: His tag, C-terminal by the vector name

[2] = biological target: T1, IL-9-His recombinant protein; experiment: ELISA on IL-9-His, 293F culture supernatant, antibody concentration 1 µg/mL
Experimental: (§3) ELISA was conducted according to a standard protocol to determine the affinity of a purified antibody for the IL-9-His recombinant protein. In short, the IL-9-His recombinant protein was diluted with sterile PBS and added at 100 μL/well to a 96-well plate. The plate was incubated at 4° C. overnight and then blocked with a blocking buffer. 100 μL of a purified anti-IL-9 antibody serially diluted was added to the plate, and the plate was incubated for 1 h at room temperature. PBS was added to a control well. The plate was washed with PBST 3 times. Then 100 μL of horseradish peroxidase (HRP)-labeled anti-mouse IgG H&L (BIODRAGON, CAT #BF03001) was added, and the plate was incubated for 1 h at room temperature. The plate was washed with PBST 3 times. Then a chromogenic reaction was conducted with a 3,3′,5,5′-tetramethylbenzidine (TMB) chromogenic solution at room temperature. An OD value in each well was read by a microplate reader. Data was processed with PRISM GraphPad, and curves were plotted. The EC₅₀ value for each candidate antibody was calculated.

[3] = biological target: T1, IL-9-His recombinant protein; experiment: ELISA on IL-9-His, 293F culture supernatant, antibody concentration 1 µg/mL (second well)
Experimental: as §3

[4] = biological target: T2, biotin-conjugated IL-9-Fc (Biotin-IL-9-Fc) (UniProt P15248 19-144, biotin-conjugated (sites not given)); experiment: flow cytometry blocking assay (IL-9-IL-9R blocking determination): serially diluted chimeric antibody against the binding of Biotin-IL-9-Fc to 293-IL-9R cells (IL-9R), MFI; unit taken from the x axis, the table prints none
T2 construct: range 19-144; also called Fc-IL-9 recombinant protein; Fc-IL-9; not shown: Fc tag (Fc2 in the vector name pLVX-Fc2-IL9 (19-144)-Puro)
T2 sequence (P15248 19-144 limits assumed, form in doubt): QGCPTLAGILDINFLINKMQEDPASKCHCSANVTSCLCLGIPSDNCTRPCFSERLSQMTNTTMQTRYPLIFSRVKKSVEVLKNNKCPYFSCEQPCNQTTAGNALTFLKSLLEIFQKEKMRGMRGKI

[5] = biological target: T1, IL-9-His recombinant protein; experiment: ELISA on IL-9-His, 293F culture supernatant, antibody concentration 2 µg/mL (second well)
Experimental: as §3

[6] = biological target: T1, IL-9-His recombinant protein; experiment: ELISA on coated IL-9-His, OD450; unit taken from the x axis, the table prints none
Experimental: as §3

[7] = biological target: T2, biotin-conjugated IL-9-Fc …; experiment: flow cytometry blocking assay (IL9-IL9R blocking determination): serially diluted antibody against the binding of Biotin-IL-9-Fc to 293-IL-9R cells (IL-9R), MFI; unit taken from the x axis, the table prints none
[8] = biological target: T1, IL-9-His recombinant protein; experiment: BLI (ForteBio), antibody on Protein A sensor, antigen 7.81-125 nM in solution
Text: The affinity of a humanized antibody was detected by ForteBio (BLI). […] An affinity detection procedure was as follows: equilibration for 60 s, binding for 180 s, and dissociation for 180 s.

IL-9 antigen protein = biological target: T3, IL-9 antigen protein (Homo sapiens, UniProt P15248); experiment: ForteBio (BLI) affinity detection; assay type: binding; details: antibody immobilized on Protein A sensor, antigen 7.81-125 nM
T3 construct: pcDNA3.4-IL9 (19-144)-His (P15248) and pLVX-Fc2-IL9 (19-144)-Puro; made in house; host or cells: 293F cells (transient transfection)
T3 sequence (P15248 19-144): as the sequence (P15248 19-144 limits assumed, form in doubt) above
Experimental: The affinity of a humanized antibody was detected by ForteBio (BLI). The chimeric (as a control) and humanized antibodies were immobilized with a Protein A sensor (SARTORIUS, Cat #18-5010) at an immobilization height of about 1 nm. An antigen protein sample was serially diluted with PBS to 125 nM, 62.5 nM, 31.25 nM, 15.625 nM, 7.81 nM, and 0 nM. An affinity detection procedure was as follows: equilibration for 60 s, binding for 180 s, and dissociation for 180 s.

IL-9 = biological target: T4, IL-9 (Homo sapiens, UniProt P15248); experiment: ELISA binding of humanized antibodies to the target antigen; details: ELISA of culture supernatant of 293F cells, control chimeric antibody CA1
T4 construct: pcDNA3.4-IL9 (19-144)-His (P15248); His (C); made in house; host or cells: 293F cells (transient transfection)
T4 sequence (P15248 19-144): as the sequence (P15248 19-144 limits assumed, form in doubt) above
Experimental: ELISA was conducted according to a standard protocol to determine the affinity of a purified antibody for the IL-9-His recombinant protein. In short, the IL-9-His recombinant protein was diluted with sterile PBS and added at 100 μL/well to a 96-well plate. The plate was incubated at 4° C. overnight and then blocked with a blocking buffer. 100 μL of a purified anti-IL-9 antibody serially diluted was added to the plate, and the plate was incubated for 1 h at room temperature. PBS was added to a control well. The plate was washed with PBST 3 times. Then 100 μL of horseradish peroxidase (HRP)-labeled anti-mouse IgG H&L (BIODRAGON, CAT #BF03001) was added, and the plate was incubated for 1 h at room temperature. The plate was washed with PBST 3 times. Then a chromogenic reaction was conducted with a 3,3′,5,5′-tetramethylbenzidine (TMB) chromogenic solution at room temperature. An OD value in each well was read by a microplate reader. Data was processed with PRISM GraphPad, and curves were plotted. The EC50 value for each candidate antibody was calculated.
Humanized antibody expression vectors carrying a designed heavy-chain or light-chain sequence were transiently transfected into 293F cells in pairs, and then a resulting culture supernatant was collected. According to a standard protocol (with reference to part 5.1 in Example 1), with a human-mouse chimeric antibody CA1 constructed with VH and VL of the original murine antibody as a control, the binding of a humanized antibody to a target antigen was detected by ELISA. The method for ELISA was the same as described in 5.1 of Example 1. […] In the follow-up experiments, the four combinations of VH1−VL2, VH1−VL4, VH2−VL4, and VH3−VL4 (hu.CA1 to hu.CA4) were taken as examples for antibody purification and function testing. […]

[9] = test system: bleomycin mouse model of pulmonary fibrosis; experiment: Bleomycin mouse pulmonary fibrosis model; assay type: in vivo
Experimental: (§1) 6 to 8-week-old male C57BL/6J mice (purchased from Guangdong Sijiajingda Biotechnology Co., Ltd., license No.: SCXK (Guangdong) 2020-0052) were grouped, modeled, and administered according to the protocols shown in Tables 6 and 7 below. The modeling with bleomycin (Nippon Kayaku, 15 mg powder, and dose: 1.5 mg/kg) and silica (SiO2, sigma, USA, S5631-500 g, and dose: 2.5 mg/mouse) was started on day 0 (DO). The administration was started on day 1 (D1), and normal saline was adopted as a solvent for an antibody. A positive drug pirfenidone (Beijing Kangdini Pharmaceutical Co., Ltd., 100 mg capsule) was adopted in a positive control group, and the humanized antibody hu.CA1 (VH1−VL2) of the present application was adopted in an anti-IL-9 antibody group.
(§2) A body weight of each mouse was measured every day. After the bleomycin model group was administered for 21 d and the silica model group was administered for 30 d, mice were sacrificed to collect lung tissues. The lung tissues each were stained to detect pathological changes in the lung tissues. Specifically, a degree of alveolar inflammation was detected through HE staining (an HE staining kit was purchased from Shanghai Beyotime Biotechnology, C0105M). A degree of pulmonary fibrosis was detected through Masson staining (a Masson staining kit was purchased from Nanjing Jiancheng Institute of Biological Engineering, D026-1-2). Scoring criteria for the HE staining and Masson staining were shown in Table 8 and Table 9 below, respectively (as shown in references: Matute-Bello G, Downey G, Moore B B, et al. An official American Thoracic Society workshop report: features and measurements of experimental acute lung injury in animals. Am J Respir Cell Mol Biol. 2011; 44 (5): 725-738. doi: 10.1165/rcmb.2009-0210ST and Lee Hyun Ju, Goo Jin Mo, Kim Na Ra et al. Semiquantitative measurement of murine bleomycin-induced lung fibrosis in in vivo and postmortem conditions using microcomputed tomography: correlation with pathologic scores—initial results. [J].Invest Radiol, 2008, 43: 453-60).

[10] = test system: silica mouse model of pulmonary fibrosis; experiment: Silica mouse pulmonary fibrosis model; assay type: in vivo, C57BL/6J mice
Experimental: as §1, §2

T1 sequence (P15248 19-144 limits assumed, form in doubt): as above

Row | Molecule | ELISA OD450 [1] [OD450] | ELISA OD450 [2] [OD450] | ELISA OD450 [3] [OD450] | EC50 [4] [µg/mL] | ELISA OD450 [5] [OD450] | EC50 [6] [µg/mL] | EC50 [7] [µg/mL] | Kd [8] [nM] | koff [8] [s⁻¹] | kon [8] [M⁻¹ s⁻¹] | Koff (IL-9 antigen protein) [s⁻¹] | Kon (IL-9 antigen protein) [M⁻¹ s⁻¹] | binding to IL-9 (IL-9) | further results
1 | 29-B9-F5-B6 chimeric antibody (CA3) (antibody, V domains shown) VH: EVQLQESGAELMKPGASVKISCKATGYTFSSYWIEWVKQRPGHGLEWIGQILPGSGSNNYNERFKGKATFTADTSSNTAYMQLSSLTSEDSAVYYCAREGNYGEAWFAYWGQGTLVTVSA VL: DILLTQSPATLSVTPGDSVSLSCRASQSISNNLHWYQQKSHESPRLLIKYASQSMSGIPSRFSGSGSGTDFTLSINSVETEDFGMYFCQQSNSWPLTFGAGTKLELK | 2.56 | 2.71 | 2.62 | 8.47 | 2.45 |  |  |  |  |  |  |  |  | 
2 | 38-D8-C7-G9 chimeric antibody (CA1) (antibody, V domains shown, also called CA1 antibody; human-mouse chimeric antibody CA1) VH: EVQLKQSGAELMKPGASVKLSCKATGYTFTGYWIEWVKLRPGHGLEWIGEILPGSGSTNYNEEFKGKATFTADTSSNTAYMQLNSLTTEDSAIYYCARRTYYYGIPEDYWGQGTSVTVSS VL: DIVMTQSQKFMSTSVGDRVSVTCKASQNVGTNVAWHQQKPGQSPKPLIYSASYRYSGVPDRFTGSGSGTDFTLTISNVQSEDLAEYFCQQYNSYPLTFGAGTKLELK | 2.48 | 2.43 | 2.55 | 5.96 | 2.6 | 0.022 | 2.07 | 0.44 | 0.000934 | 2.13e+06 |  |  |  | 
3 | humanized antibody VH1-VL4 (hu.CA2) (antibody, V domains shown, IgG1 / kappa by the vectors pcDNA3.4-IgG1 and pcDNA3.4-IgKc; also called humanized VH1-VL4 antibody) VH: EVQLKQSGAEVMKPGASVKVSCKATGYTFTGYWIEWVRLAPGHGLEWMGEILPGSGSTNYNQKFQGRVTFTADTSINTAYMELSRLRSDDTAIYYCARRTYYYGIPEDYWGQGTLVTVSS VL: DIVMTQSPKFLSASVGDRVTITCKASQNVGTNVAWHQQKPGQSPKPLIYSASYRYSGVPSRFTGSGSGTDFTLTISNLQPEDFAEYFCQQYNSYPLTFGAGTKLEIK |  |  |  |  |  | 0.0127 | 8.18 | 1.89 | 0.00221 | 1.16e+06 | 0.002206 | 1.165e+06 | bind to IL-9 with high affinity | 
4 | humanized antibody VH1-VL2 (hu.CA1) (antibody, V domains shown, IgG1 / kappa by the vectors pcDNA3.4-IgG1 and pcDNA3.4-IgKc; also called humanized VH1-VL2 antibody) VH: EVQLKQSGAEVMKPGASVKVSCKATGYTFTGYWIEWVRLAPGHGLEWMGEILPGSGSTNYNQKFQGRVTFTADTSINTAYMELSRLRSDDTAIYYCARRTYYYGIPEDYWGQGTLVTVSS VL: DIVMTQSQKFFSTSTGDRVTITCRASQNVGTNVAWHQQKPGQSPKPLIYSASYRYSGVPSRFTGSGSGTDFTLTISNLQSEDFAEYFCQQYNSYPLTFGAGTKLEIK |  |  |  |  |  | 0.035 | 5.89 | 2.38 | 0.00253 | 1.07e+06 | 0.002535 | 1.066e+06 | bind to IL-9 with high affinity | collagen fibers and fibrosis regions of lung tissues (Masson staining) ([9]; bleomycin model, 21 d): significantly reduced; inflammation score compared with pirfenidone group ([9]; bleomycin model, 21 d, HE staining): slightly lower than the pirfenidone group; inflammation score ([9]; bleomycin model, 21 d, HE staining, FIG. 9B): significantly reduce an inflammation score; fibrosis score ([9]; bleomycin model, 21 d, Masson staining, FIG. 10B): significantly reduce a fibrosis score; lung tissue structures (HE staining) ([9]; bleomycin model, 21 d, antibody 100 μg i.p. every other day, pirfenidone 300 mg/kg intragastric daily): improved; body weights over time ([9]; bleomycin model, compared with negative and positive control groups, FIG. 8A): changed in a same trend; safety ([9]; conclusion from body weights in bleomycin and silica models): excellent safety; collagen fibers and fibrosis regions of lung tissues (Masson staining) ([10]; 30 d): significantly reduced; inflammation score ([10]; 30 d, HE staining, FIG. 11B): significantly reduce an inflammation score; fibrosis score ([10]; 30 d, Masson staining, FIG. 12B): reduce a fibrosis score; lung tissue structures (HE staining) ([10]; 30 d, antibody 100 μg i.p. every other day, pirfenidone 300 mg/kg intragastric daily): improved; body weights over time ([10]; compared with negative and positive control groups, FIG. 8B): changed in a same trend
5 | 22-F2-E9-C8 chimeric antibody (CA4) (antibody, V domains shown) VH: EVQVVESGPGLVKPSQSLSLTCSVTGSSFTSGYYWNWIRQFPGNKLEWMGYIRYDGSNNYNPSLKNRISITRDTSKNQFFLKLNSVTSEDTATYYCASYGSSYDAMDYWGQGTSVTVSS VL: DIQLTQPPASLSASVGETVTITCRASENIDSYLAWYQQKQGKSPQLLVYAATLLADGVPSRFSGSGSGTQYSLKINSLQSEDVARYYCQHYYSTPWTFGGGTKLELK | 2.45 | 2.63 | 2.59 | 2.96 | 2.43 |  |  |  |  |  |  |  |  | 
6 | 31-D6-B8-B8 chimeric antibody (CA2) (antibody, V domains shown) VH: EVQLKESGPGLVKPSQSLSLTCSVTGYSSTSGYYWNWIRQFPGNKLEWMGYIRYDGSSNHNPSLKNRISITRDTSKNQFFLKLNSVTTEDTATYYCASYGITYDAMDYWGQGTSVTVSS VL: DIQLTQPPASLSASVGETVTITCRASENIDSYLAWYQQKQGKSPQLLVYAATLLADGVPSRFSGSGSGTQYSLKINSLQSEDVARYYCQHYYSTPWTFGGGTKLELK | 2.49 | 2.66 | 2.62 | 15.8 | 2.46 |  |  |  |  |  |  |  |  | 
